Results taken from publication PMC5394796 (Journal of molecular biology, 2016).

Molecular target: the molecule itself
Assay: disulfide-linked dimer fraction in lipid vesicles by SDS-PAGE

Protein: SSPGTPASPCSLSGIIIGVTVAAVVLIVAVFVSKSLLWKK [DR5-L TM peptide (synthetic 40-residue DR5-L transmembrane domain)]
- stoichiometry N: 2
